# T1: mouse TREM2 on BWZ cells (mouse, UniProt Q99NH8 19-227)
# T1 construct: whole, on cells; also called BWZ Mouse TREM2
# T1 sequence (looked up): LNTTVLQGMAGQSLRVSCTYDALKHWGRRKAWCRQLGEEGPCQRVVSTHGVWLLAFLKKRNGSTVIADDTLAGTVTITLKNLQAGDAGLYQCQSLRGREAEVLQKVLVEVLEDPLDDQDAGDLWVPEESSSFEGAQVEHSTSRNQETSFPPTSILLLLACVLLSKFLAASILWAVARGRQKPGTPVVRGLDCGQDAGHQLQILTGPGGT
# T2: human TREM2 on BWZ cells (human, UniProt Q9NZC2 19-230)
# T2 construct: whole, on cells; not tied to the cell line; also called BWZ Human TREM2
# T2 sequence (looked up): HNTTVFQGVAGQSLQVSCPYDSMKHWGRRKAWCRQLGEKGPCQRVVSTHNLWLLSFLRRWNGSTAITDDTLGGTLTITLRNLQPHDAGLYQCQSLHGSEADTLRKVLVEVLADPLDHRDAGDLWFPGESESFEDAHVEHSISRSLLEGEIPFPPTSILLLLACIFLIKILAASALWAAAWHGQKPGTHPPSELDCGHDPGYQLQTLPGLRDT
# Assays:
# mouse TREM2 on BWZ cells = molecular target: T1, mouse TREM2 on BWZ cells; assay: FACS, BWZ cells
# human TREM2 on BWZ cells = molecular target: T2, human TREM2 on BWZ cells; assay: FACS, BWZ cells
binding result (mouse TREM2 on BWZ cells),binding result (human TREM2 on BWZ cells),Binder
no binding,no binding,"T1-68 (antibody, IgG1, V domains shown, huIgG1; also called TI-68; ADI-19144) VH: EVQLVQSGAEVKKPGESLKISCKGSGYSFTTYWIGWVRQMPGKGLEWMGIIYPGDSDTRYSPSFQGQVTISADKSISTAYLQWSSLKASDTAMYYCARGSPWDGRLFDIWGQGTMVTVSS VL: EIVLTQSPATLSLSPGERATLSCRASQSVSSYLAWYQQKPGQAPRLLIYDASNRATGIPARFSGSGSGTDFTLTISSLEPEDFAVYYCQQFDNLPYTFGGGTKVEIK"
no binding,no binding,"T1-67 (antibody, IgG1, V domains shown, huIgG1; also called TI-67; ADI-19143) VH: QVQLVQSGAEVKKPGASVKVSCKASGYTFTSYGIHWVRQAPGQGLEWMGWISAYNGNTNYAQKLQGRVTMTTDTSTSTAYMELRSLRSDDTAVYYCARGRPSSSWGNWFDPWGQGTTVTVSS VL: EIVLTQSPGTLSLSPGERATLSCRASQSVSSSFLAWYQQKPGQAPRLLIYGASSRATGIPDRFSGSGSGTDFTLTISRLEPEDFAVYYCQQAVSLPWTFGGGTKVEIK"
no binding,no binding,"T1-2 (antibody, IgG1, V domains shown, huIgG1; also called TI-2; ADI-19068) VH: QVQLVQSGAEVKKPGSSVKVSCKASGGTFSSYAISWVRQAPGQGLEWMGGIIPIFGTANYAQKFQGRVTITADESTSTAYMELSSLRSEDTAVYYCAREGGPRGASFNWFDPWGQGTLVTVSS VL: EIVLTQSPGTLSLSPGERATLSCRASQSVSSSYLAWYQQKPGQAPRLLIYGASSRATGIPDRFSGSGSGTDFTLTISRLEPEDFAVYYCQQYLGFPPTFGGGTKVEIK"
no binding,no binding,"T1-61 (antibody, IgG1, V domains shown, huIgG1; also called TI-61; ADI-19137) VH: QVQLQESGPGLVKPSETLSLTCAVSGYSISSGYYWGWIRQPPGKGLEWIGSIYHSGSTYYNPSLKSRVTISVDTSKNQFSLKLSSVTAADTAVYYCARHDDYLSSFDPWGQGTLVTVSS VL: not shown"
no binding,no binding,"T1-65 (antibody, IgG1, V domains shown, huIgG1; also called TI-65; ADI-19141) VH: QLQLQESGPGLVKPSETLSLTCTVSGGSISSSDYYWGWIRQPPGKGLEWIGSIYYSGSTYYNPSLKSRVTISVDTSKNQFSLKLSSVTAADTAVYYCARDSGQYTGSLDVWGQGTMVTVSS VL: not shown"
no binding,no binding,"T1-78 (antibody, IgG1, V domains shown, huIgG1; also called TI-78; ADI-19155) VH: QLQLQESGPGLVKPSETLSLTCTVSGGSISSSSYYWGWIRQPPGKGLEWIGSIYYSGSTYYNPSLKSRVTISVDTSKNQFSLKLSSVTAADTAVYYCARDLGQYEGYFDLWGRGTLVTVSS VL: not shown"
no binding,no binding,"T1-77 (antibody, IgG1, V domains shown, huIgG1; also called TI-77; ADI-19154) VH: QVQLQESGPGLVKPSETLSLTCAVSGYSISSGYYWAWIRQPPGKGLEWIGSIYHSGSTYYNPSLKSRVTISVDTSKNQFSLKLSSVTAADTAVYYCARGGPYPWSGWFDPWGQGTLVTVSS VL: EIVMTQSPATLSVSPGERATLSCRASQSVGSNLAWYQQKPGQAPRLLIYGASTRATGIPARFSGSGSGTEFTLTISSLQSEDFAVYYCQQHDVWPYTFGGGTKVEIK"
no binding,no binding,"T1-4 (antibody, IgG1, V domains shown, huIgG1; also called TI-4; ADI-19070) VH: QVQLVQSGAEVKKPGSSVKVSCKASGGTFSSYAISWVRQAPGQGLEWMGGIIPIFGTANYAQKFQGRVTITADESTSTAYMELSSLRSEDTAVYYCARHYYYGYAYFDLWGRGTLVTVSS VL: EIVMTQSPATLSVSPGERATLSCRASQSVSSNLAWYQQKPGQAPRLLIYGASTRATGIPARFSGSGSGTEFTLTISSLQSEDFAVYYCQQFNNHPITFGGGTKVEIK"
no binding,no binding,"T1-76 (antibody, IgG1, V domains shown, huIgG1; also called TI-76; ADI-19153) VH: not shown VL: DIQMTQSPSTLSASVGDRVTITCRASQSISSWLAWYQQKPGKAPKLLIYDASSLESGVPSRFSGSGSGTEFTLTISSLQPDDFATYYCQQHSTYSWTFGGGTKVEIK"
no binding,no binding,"T1-69 (antibody, IgG1, V domains shown, huIgG1; also called TI-69; ADI-19145) VH: QVQLVQSGAEVKKPGASVKVSCKASGYTFTSYGISWVRQAPGQGLEWMGWISAYNGNTNYAQKLQGRVTMTTDTSTSTAYMELRSLRSDDTAVYYCARGAGMYDGSPLGMDVWGQGTTVTVSS VL: DIQMTQSPSSVSASVGDRVTITCRASQGISSWLAWYQQKPGKAPKLLIYAASNLQSGVPSRFSGSGSGTDFTLTISSLQPEDFATYYCQQATAHPPTFGGGTKVEIK"
no binding,no binding,"T1-71 (antibody, IgG1, V domains shown, huIgG1; also called TI-71; ADI-19147) VH: EVQLVESGGGLVQPGRSLRLSCAASGFTFGDYAMHWVRQAPGKGLEWVSGISWNSGSIGYADSVKGRFTISRDNAKNSLYLQMNSLRAEDTALYYCAKGPRRTSHLDIWGQGTMVTVSS VL: DIQMTQSPSSVSASVGDRVTITCRASQGIDSWLAWYQQKPGKAPKLLIYAASSLQSGVPSRFSGSGSGTDFTLTISSLQPEDFATYYCQQATSLPLTFGGGTKVEIK"
no binding,no binding,"T1-70 (antibody, IgG1, V domains shown, huIgG1; also called TI-70; ADI-19146) VH: QVQLVQSGAEVKKPGASVKVSCKASGYTFTSYGIHWVRQAPGQGLEWMGWISAYNGNTNYAQKLQGRVTMTTDTSTSTAYMELRSLRSDDTAVYYCARAGTIYGRLDLWGRGTLVTVSS VL: DIQLTQSPSSVSASVGDRVTITCRASQDISSWLAWYQQKPGKAPKLLIYAASSLQSGVPSRFSGSGSGTDFTLTISSLQPEDFATYYCQQAVSHPLTFGGGTKVEIK"
no binding,no binding,"T1-79 (antibody, IgG1, V domains shown, huIgG1; also called TI-79; ADI-19156) VH: QLQLQESGPGLVKPSETLSLTCTVSGGSISSSSYYWGWIRQPPGKGLEWIGSIYYSGSTYYNPSLKSRVTISVDTSKNQFSLKLSSVTAADTAVYYCARLGDGYRIWADYWGQGTLVTVSS VL: not shown"
no binding,no binding,"T1-64 (antibody, IgG1, V domains shown, huIgG1; also called TI-64; ADI-19140) VH: QLQLQESGPGLVKPSETLSLTCTVSGGSISSSSYYWGWIRQPPGKGLEWIGSISYSGSTYYNPSLKSRVTISVDTSKNQFSLKLSSVTAADTAVYYCARYYSPYGMDVWGQGTTVTVSS VL: not shown"
no binding,no binding,"T1-59 (antibody, IgG1, V domains shown, huIgG1; also called TI-59; ADI-19135) VH: QVQLQESGPGLVKPSETLSLTCAVSGYSISSGYYWAWIRQPPGKGLEWIGSIYHSGSTYYNPSLKSRVTISVDTSKNQFSLKLSSVTAADTAVYYCARDLGGYEGAFDPWGQGTLVTVSS VL: not shown"
no binding,no binding,"T1-73 (antibody, IgG1, V domains shown, huIgG1; also called TI-73; ADI-19149) VH: EVQLVESGGGLVQPGRSLRLSCAASGFTFDDYAMHWVRQAPGKGLEWVSGISWNSGSIGYADSVKGRFTISRDNAKNSLYLQMNSLRAEDTALYYCAKAPRMYGYFDLWGRGTSVTVSS VL: DIQMTQSPSTLSASVGDRVTITCRASQSISSWLAWYQQKPGKAPKLLIYKASSLESGVPSRFSGSGSGTEFTLTISSLQPDDFATYYCQQYRTYPTFGGGTKVEIK"
no binding,no binding,"T1-74 (antibody, IgG1, V domains shown, huIgG1; also called TI-74; ADI-19151) VH: EVQLVESGGGLVQPGRSLRLSCAASGFTFDDYAMHWVRQAPGKGLEWVSGISWNSGSIGYADSVKGRFTISRDNAKNSLYLQMNSLRAEDTALYYCAKGPRTRGYFDLWGRGTLVTVSS VL: DIQMTQSPSTLSASVGDRVTITCRASQSISSWLAWYQQKPGKAPKLLIYKASSLESGVPSRFSGSGSGTEFTLTISSLQPDDFATYYCQQHSLLSITFGGGTKVEIK"
no binding,no binding,"T1-1 (antibody, IgG1, V domains shown, huIgG1; also called TI-1; ADI-19067) VH: QVQLVQSGAEVKKPGSSVKVSCKASGGTFSSYAISWVRQAPGQGLEWMGGIIPIFGTANYAQKFQGRVTITADESTSTAYMELSSLRSEDTAVYYCARGQGSDHYYYGMDVWGQGTTVTVSS VL: not shown"
no binding,no binding,"T1-63 (antibody, IgG1, V domains shown, huIgG1; also called TI-63; ADI-19139) VH: QVQLQESGPGLVKPSETLSLTCAVSGYSISSGYYWGWIRQPPGKGLEWIGSIYHSGNTYYNPSLKSRVTISVDTSKNQFSLKLSSVTAADTAVYYCARELYAYSSPMFYGMDVWGRGTTVTVSS VL: DIQMTQSPSSLSASVGDRVTITCRASQSISRYLNWYQQKPGKAPKLLIYAASSLQSGVPSRFSGSGSGTDFTLTISSLQPEDFATYYCQQLYHAPPITFGGGTKVEIK"
no binding,no binding,"T1-72 (antibody, IgG1, V domains shown, huIgG1; also called TI-72; ADI-19148) VH: EVQLVESGGGLVQPGRSLRLSCAASGFTFDDYAMHWVRQAPGKGLEWVSGISWNSGDIGYADSVKGRFTISRDNAKNSLYLQMNSLRAEDTALYYCAKGPRMTHSYFDLWGRGTLVTVSS VL: not shown"
no binding,no binding,"T1-75 (antibody, IgG1, V domains shown, huIgG1; also called TI-75; ADI-19152) VH: QVQLVESGGGLVQPGRSLRLSCAASGFTFDDYAMHWVRQAPGKGLEWVSGISWNSGDIGYADSVKGRFTISRDNAKNSLYLQMNSLRAEDTALYYCAKAPRTRWTYFDYWGQGTLVTVSS VL: EIVLTQSPATLSLSPGERATLSCRASQSVSSYLAWYQQKPGQAPRLLIYDASNRATGIPARFSGSGSGTDFTLTISSLEPEDFAVYYCQHYNLWRTFGGGTKVEIK"
